Laboratory results as given in patent US20250257112A1 (SHIRE NPS PHARMACEUTICALS, published 2025).

Molecular target: PTH receptor ("PTHIR")
Assay: cell-based or functional assay

cAMP potency (EC50): 0.24 nM
B1: PTH(1-84) (ligand)
chain: SVSEIQLMHNLGKHLNSMERVEWLRKKLQDVHNFVALGAPLAPRDAGSQRPRKKEDNVLVESHEKSLGEADKADVNVLTKAKSQ
